Measurements published in article PMC4398509, “A new regulatory mechanism for bacterial lipoic acid synthesis”.
Numbering of substitutions follows the chain as printed.

B1: ybeD_ec (dsDNA)
DNA 1: AAACACTTGAAAGTGTAATTTCCGTCCCCATATACTAAGCAT
DNA 2: ATGCTTAGTATATGGGGACGGAAATTACACTTTCAAGTGTTT
B2: ybeD_es (dsDNA)
DNA 1: B1 DNA 1 with A1G, A17G, G24A, A38G, C40T
DNA 2: B1 DNA 2 with G3A, T5C, C19T, T26C, T42C
B3: ybeD_kp (dsDNA)
DNA 1: B1 DNA 1 with A1G, A17G, G24A, A38T, G39T
DNA 2: B1 DNA 2 with C4A, T5A, C19T, T26C, T42C
B4: ybeD_st1 (dsDNA)
DNA 1: B1 DNA 1 with A1G, A5G, A17G, C22T, A38T
DNA 2: B1 DNA 2 with T5A, G21A, T26C, T38C, T42C
B5: lipBA_she (dsDNA)
DNA 1: CAAGGTCATAAAGTGTGATCTATCTTACATTTATGGCCAAGAG
DNA 2: CTCTTGGCCATAAATGTAAGATAGATCACACTTTATGACCTTG
B6: lipA_ec (dsDNA)
DNA 1: ACGGAGTAATAGATGTTATCCGTAATGCATTTTGAAAAAGTA
DNA 2: TACTTTTTCAAAATGCATTACGGATAACATCTATTACTCCGT
B7: fadD_ec (dsDNA)
DNA 1: GTAAAGATAAAAATAAATAGTGACGCGCTTCGCAACCTTTTCGTTGGG
DNA 2: CCCAACGAAAAGGTTGCGAAGCGCGTCACTATTTATTTTTATCTTTAC
B8: ybeD_st2 (dsDNA)
DNA 1: CTGTGGCGGGAGTTGTTATTTTTTTTACGTAATGCCGGAGCT
DNA 2: AGCTCCGGCATTACGTAAAAAAAATAACAACTCCCGCCACAG
B9: ybeD_yp (dsDNA)
DNA 1: ATTGGCCCCATATTGTGATTAATCTTATATTGCAAATAAGCT
DNA 2: AGCTTATTTGCAATATAAGATTAATCACAATATGGGGCCAAT

These binders were tested against CRP_ec (cAMP receptor protein) (Escherichia coli, UniProt P0ACJ8 1-210) (assay: EMSA; cAMP (20 pmol); EMSA: 0.2 pmol DIG probe, CRP (2 pmol in Fig. 6), 20 pmol cAMP, Roche binding buffer (composition and pH not given), 20 uL (15 uL in Fig. S2), room temperature). Settings: protein: recombinant; tags: His6 (pET28 construct, nickel purified); chain copies: 2; label: DIG-ddUTP 3' end (terminal transferase); blunt.

| Binder | binding result |
| --- | --- |
| B1 | no binding |
| B2 | binds |
| B3 | binds |
| B4 | binds |
| B5 | binds |
| B6 | no binding |
| B7 | binds |
| B8 | no binding |
| B9 | no binding |

What follows are binders tested against CRP_she (cAMP receptor protein) (UniProt Q8EJ49 1-211) in the same assay as above. Settings: protein: recombinant; tags: N-terminal His6 (pET28a); chain copies: 2; label: DIG-ddUTP 3' end (terminal transferase); blunt.

| Binder | binding result |
| --- | --- |
| B5 | binds |
| B7 | binds |
